First the molecules themselves.
B1: Peptide chain release factor subunit 1 (Aeropyrum pernix (strain ATCC 700893 / DSM 11879 / JCM 9820 / NBRC 100138 / K1)), Q9YAF1 (parent)
chain: MSQGRLEERLTISKRELARLLKELKKWSAPATVLLSLYIPPGRPLSDVMTLLRQEYSITDNIKLKRTRQAVKRALSAAMDRLQMLTSTPPNGLVLFCGEDMSTGKFECFMFSPPEPIRVFYYRTDKRFITDFLEDMVEDNNAIGIIIVERDQATIGLLKGARLEVLKELEGFVPGKHKMGGQSQRRYERIIEQMVDEFFKKVGEEASNLLVPLAEKGVLKGVIVAGPGLAKQEFVEGNYLDYRLKKILAPELVDVAYQGLQGLKEAVMKAEKVVEAQMYRDAVNAMEEFKLHLAKGTGMIVYGEKDVEAALEMGAVKTLLIHESREDLEEWVEKAKSSGAQVIVVPESLAEAEWFLKTFGGLAGILRFRISTV
partner: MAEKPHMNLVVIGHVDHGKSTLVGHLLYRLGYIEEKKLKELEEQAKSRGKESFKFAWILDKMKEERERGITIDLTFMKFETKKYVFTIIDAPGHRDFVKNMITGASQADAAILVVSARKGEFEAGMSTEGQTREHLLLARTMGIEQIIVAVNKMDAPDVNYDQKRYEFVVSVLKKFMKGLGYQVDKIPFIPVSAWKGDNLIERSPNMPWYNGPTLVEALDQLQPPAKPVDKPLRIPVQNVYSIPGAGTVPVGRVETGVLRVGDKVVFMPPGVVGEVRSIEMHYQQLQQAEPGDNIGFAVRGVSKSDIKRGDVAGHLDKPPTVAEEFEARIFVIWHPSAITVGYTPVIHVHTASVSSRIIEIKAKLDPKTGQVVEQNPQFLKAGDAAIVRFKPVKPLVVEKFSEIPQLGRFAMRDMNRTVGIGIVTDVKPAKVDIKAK
B2: Eukaryotic peptide chain release factor subunit 1 (Schizosaccharomyces pombe (strain ATCC 38366 / 972)), P79063 (parent)
chain: MSETAEKAIEIWKIRRLVKQLINCHGNGTSMITLIIPPGEQISRYSNMLAEEYGTASNIKSRVNRLSVLSAITSTRERLKLYNKVPDNGLVIYCGEVIMEGNKTRKLNIDFEPFKPINTSQYLCDNKFHTEALAELLESDQRFGFIVMDGHQTLYGVVSGSAREVLQRFTVDLPKKHGRGGQSALRFARLRDEKRHNYVRKVAEGAVQHFITDDKPNVAGIVLAGSADFKTELGQSDLFDQRLQSRIIKTVDVSYGGDAGFNQAIELAADTLSNVKYVQEKKLIQRFFDEISLDSGKYCFGVVDTMNALQEGAVETLLCFADLDMIRYEFKNSEGNPVITYMTKEQEEKDSTNSFLLDKDTGAEMELVSSMLLSEWLAEHYKDYGANLEFVSDRSQEGMQFVKGFGGIGAVMRYQLDLSMLDPESDEFYSDSD
partner: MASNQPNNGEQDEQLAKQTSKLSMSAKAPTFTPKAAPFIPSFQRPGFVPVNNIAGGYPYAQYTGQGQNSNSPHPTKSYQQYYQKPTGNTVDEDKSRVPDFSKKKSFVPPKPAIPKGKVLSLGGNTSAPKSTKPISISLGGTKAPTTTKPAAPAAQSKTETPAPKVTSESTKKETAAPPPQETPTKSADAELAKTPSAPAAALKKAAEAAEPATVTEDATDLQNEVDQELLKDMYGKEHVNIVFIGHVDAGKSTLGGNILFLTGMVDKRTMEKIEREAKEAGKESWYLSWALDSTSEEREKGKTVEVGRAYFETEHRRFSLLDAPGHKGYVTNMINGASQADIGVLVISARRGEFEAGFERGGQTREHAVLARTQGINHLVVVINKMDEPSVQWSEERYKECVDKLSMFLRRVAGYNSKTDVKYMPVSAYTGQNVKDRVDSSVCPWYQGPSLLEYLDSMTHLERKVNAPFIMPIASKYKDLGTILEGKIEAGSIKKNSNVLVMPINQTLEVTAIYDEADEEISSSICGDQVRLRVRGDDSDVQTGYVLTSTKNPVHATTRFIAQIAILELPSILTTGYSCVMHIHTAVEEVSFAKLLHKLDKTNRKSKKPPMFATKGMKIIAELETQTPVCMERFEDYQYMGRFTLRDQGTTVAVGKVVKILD
B3: Elongation factor 1-alpha (Aeropyrum pernix (strain ATCC 700893 / DSM 11879 / JCM 9820 / NBRC 100138 / K1)), Q9YAV0 (parent)
chain: B1 partner
partner: B1 chain
B4: Eukaryotic peptide chain release factor GTP-binding subunit (Schizosaccharomyces pombe (strain ATCC 38366 / 972)), O74718 (parent)
chain: B2 partner
partner: B2 chain

In the first assay the parent is B1. The note with it: with ef1a_aerpe tuf.
Take F359A: the “effect of a mutation on the interaction” value was “disrupting interaction”. Consider L293A, for which the “effect of a mutation on the interaction” value was “disrupting interaction”. For K290A, the “effect of a mutation on the interaction” value was “disrupting interaction”.

In the case of G228A, the “effect of a mutation on the interaction” value was “disrupting interaction”.

With W354A, the “effect of a mutation on the interaction” value was “disrupting interaction”. The same measure, in the same setting: the value for E168A was “decreasing interaction”.

The variants in a further assay derive from B2. The note with it: with erf3_schpo sup35, O74718.
For the variant K176A, the “effect of a mutation on the interaction” value is on record as “decreasing interaction”. With L173A, the “effect of a mutation on the interaction” value is given as “decreasing interaction”.

The variants in a further assay derive from B3. The note with it: with rf1_aerpe prf1, Q9YAF1.
In the case of D73A, the “effect of a mutation on the interaction” value is recorded as “decreasing interaction”. On to S337A, for which the “effect of a mutation on the interaction” value is “disrupting interaction”.

For F379A, the “effect of a mutation on the interaction” value is recorded as “disrupting interaction”. For the variant A338S, the “effect of a mutation on the interaction” value was “disrupting interaction”.

With E64A, the “effect of a mutation on the interaction” value was “disrupting interaction”.

As for E65A, the “effect of a mutation on the interaction” value is on record as “decreasing interaction”.

A further assay covers variants of B4. The note with it: with erf1_schpo sup45, P79063.
In the case of Y477A, the “effect of a mutation on the interaction” value is reported as “disrupting interaction”. For the variant E297A, the “effect of a mutation on the interaction” value is on record as “decreasing interaction”. In the case of T294A, the “effect of a mutation on the interaction” value is reported as “decreasing interaction”.

For E305A, the “effect of a mutation on the interaction” value was “decreasing interaction”. The same measure, in the same setting: to Y329A belongs “disrupting interaction”.

Values taken from IntAct's records for PubMed 20974926.
